Each block holds one binder with its values, some of them ahead of it.
Key:
[1] = target: T1, endogenous human FcRn in cells (human, UniProt P55899 24-365); assay: FcRn occupancy in HUVECs: unlabeled N027 for 1 hour at 37 C, free FcRn stained with VivoTag645-N027, flow cytometry
T1 construct: whole, on cells; Mostly intracellular (endosomal); cells were fixed and permeabilised before staining in most assays. b2m is not mentioned; also called endogenously expressed human FcRn; FcRn in THP-1 cells, HAECs, HUVECs and HVTs

[2] = target: T2, recombinant human FcRn (rhFcRn) (human, UniProt P55899 24-297; P16213 21-119); assay: SPR method of Example 2; differs from the 19.4 pM of Table 3
[3] = target: T1, endogenous human FcRn in cells; assay: FcRn occupancy in HAECs: unlabeled N027 for 1 hour at 37 C, free FcRn stained with VivoTag645-N027, flow cytometry
[4] = target: T2, recombinant human FcRn (rhFcRn); assay: SPR (ProteOn XPR 36), mAb captured on anti-human Fc, rhFcRn as analyte, pH 7.4, 298K
[5] = target: T3, cynomolgus monkey FcRn extracellular domain, GPI-linked, on the surface of HEK 293 cells (cynomolgus monkey, UniProt Q8SPV9 24-297; Q8SPW0 21-119, C-terminal engineered GPI linkage); assay: competition flow cytometry on HEK 293 cells with cell-surface GPI-linked cynomolgus monkey FcRn at pH 6.0; inhibition of the binding of 66 nM fluorescent probe-labeled non-specific IgG; readout cell bound IgG (MFI)
T3 construct: extracellular domain; b2m is not mentioned for these cells

[6] = target: T1, endogenous human FcRn in cells; assay: cell-based or functional assay
[7] = target: T1, endogenous human FcRn in cells; assay: flow cytometry on fixed and permeabilised THP-1 cells (endogenous human FcRn), pH 7.4
[8] = target: T1, endogenous human FcRn in cells; assay: FcRn occupancy in HVTs: unlabeled N027 for 1 hour at 37 C, free FcRn stained with VivoTag645-N027, flow cytometry

B1: N027 (antibody, human IgG1, lambda, N297A)
heavy: not shown
light: QSALTQPASVSGSPGQSITISCTGTGSDVGSYNLVSWYQQHPGKAPKLMIYGDSERPSGVSNRFSGSKSGNTASLTISGLQAEDEADYYCSSYAGSGIYVFGTGTKVTVLGQPKAAPSVTLFPPSSEELQANKATLVCLISDFYPGAVTVAWKADSSPVKAGVETTTPSKQSNNKYAASSYLSLTPEQWKSHKSYSCQVTHEGSTVEKTVAPTECS
notes: IgG1, lambda light chain; Fluorophore-labelled forms served as detection reagent in the occupancy assays; also called anti-FcRn antibody N027; VivoTag645-labeled N027
IC50 [1]: 0.15 µg/mL
Kd [2]: 0.0193 nM
IC50 [3]: 0.23 µg/mL
Kd [4]: 0.0194 nM
koff [4]: 2.31e-05 s⁻¹
kon [4]: 1.19e+06 M⁻¹ s⁻¹
EC50 [5]: 4.46 nM
intracellular IgG accumulation (VivoTag645-IgG, flow cytometry), ~IC50, HAECs [6]: ~0.12 µg/mL
intracellular IgG accumulation (VivoTag645-IgG, flow cytometry), ~IC50, HUVECs [6]: ~0.15 µg/mL
intracellular IgG accumulation (VivoTag645-IgG, flow cytometry), ~IC50, HVTs [6]: ~0.07 µg/mL
EC50 [7]: 3 nM
IC50 [8]: 0.15 µg/mL

B4: N023 (antibody, human IgG1, lambda, N297A)
heavy: not shown
light: B1 light
notes: also called anti-FcRn antibody N023
Kd [4]: 0.0314 nM
koff [4]: 2.91e-05 s⁻¹
kon [4]: 927000 M⁻¹ s⁻¹
EC50 [5]: 5.16 nM

Other lines, results leading:

Kd [4]: 0.0355 nM
koff [4]: 4.03e-05 s⁻¹
kon [4]: 1.13e+06 M⁻¹ s⁻¹
EC50 [5]: 3.51 nM
B2: N024 (antibody, human IgG1, lambda, N297A)
heavy: not shown
light: B1 light
notes: IgG1, lambda light chain; also called anti-FcRn antibody N024

Kd [4]: 0.0365 nM
koff [4]: 4.44e-05 s⁻¹
kon [4]: 1.22e+06 M⁻¹ s⁻¹
EC50 [5]: 2.68 nM
B3: N026 (antibody, human IgG1, lambda, N297A)
heavy: not shown
light: B1 light
notes: IgG1, lambda light chain; also called anti-FcRn antibody N026

Kd [4]: 0.031 nM
koff [4]: 4.42e-05 s⁻¹
kon [4]: 1.42e+06 M⁻¹ s⁻¹
EC50 [5]: 4.8 nM
B5: N022 (antibody, human IgG1, lambda, N297A)
heavy: not shown
light: B1 light
notes: also called anti-FcRn antibody N022
